Data published in article PMC5291321.

Target: full-length Cbln1 (Cbln1FL) (human) (UniProt P23435)
Assay: ITC

full-length Cbln1 (Cbln1FL) (human), sequence (P23435 22-193): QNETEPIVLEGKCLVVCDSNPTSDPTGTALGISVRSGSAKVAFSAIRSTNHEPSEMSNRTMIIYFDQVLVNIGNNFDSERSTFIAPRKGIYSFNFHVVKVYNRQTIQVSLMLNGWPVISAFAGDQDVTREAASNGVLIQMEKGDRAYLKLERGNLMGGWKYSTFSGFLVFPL

Substance: β-neurexin-1 with spliced sequence #4 (β-NRX1(+4)) (domain or fragment)
- Kd: 43.5 nM
- stoichiometry N (β-NRX1(+4) per Cbln1 hexamer): 1
